Reference: PMC9592637, “Functional characterization and transcriptional repression by Lacticaseibacillus paracasei DinJ-YafQ” (Applied Microbiology and Biotechnology, 2022)

What was measured:
[1] = tested on: T1, DinJ;YafQ_pa4366 (Lacticaseibacillus paracasei 4366;Lacticaseibacillus paracasei 4366), ORF:82b9b73a+ORF:f6e62217; assay: competition; details: EMSA: 2 nM DNA, 128 ng salmon sperm DNA in 10 uL, 50 mM Tris-HCl pH 7.5, 50 mM KCl, 5% glycerol, room temperature 10 min, 6% native PAGE in TBE; RNAP …
T1 sequence 1: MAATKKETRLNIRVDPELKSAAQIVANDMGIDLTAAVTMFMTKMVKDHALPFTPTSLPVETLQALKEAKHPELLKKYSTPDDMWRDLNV
T1 sequence 2: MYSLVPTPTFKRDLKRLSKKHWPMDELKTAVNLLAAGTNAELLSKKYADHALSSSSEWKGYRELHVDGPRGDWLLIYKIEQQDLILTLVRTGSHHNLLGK

[2] = tested on: DinJ R13A (Lacticaseibacillus paracasei 4366); assay: EMSA; details: complete loss of binding up to 1.5 uM; EMSA: 2 nM DNA, 128 ng salmon sperm DNA in 10 uL, 50 mM Tris-HCl pH 7.5, 50 mM KCl, 5% glycerol, room temperature 10 min, 6% native PAGE in TBE; RNAP …
[3] = tested on: DinJ;YafQ_pa2333 (Lacticaseibacillus paracasei 4366;Lacticaseibacillus paracasei 2333); assay: EMSA; details: EMSA: 2 nM DNA, 128 ng salmon sperm DNA in 10 uL, 50 mM Tris-HCl pH 7.5, 50 mM KCl, 5% glycerol, room temperature 10 min, 6% native PAGE in TBE; RNAP …
[4] = tested on: DinJ;YafQ_pa4366 (Lacticaseibacillus paracasei 4366;Lacticaseibacillus paracasei 4366); assay: EMSA; details: EMSA: 2 nM DNA, 128 ng salmon sperm DNA in 10 uL, 50 mM Tris-HCl pH 7.5, 50 mM KCl, 5% glycerol, room temperature 10 min, 6% native PAGE in TBE; RNAP …

Row | Substance | binding [1] | Kd [2] [nM] | Kd [3] [nM] | Kd [4] [nM]
1 | CGTCCTCAAGCTGCTCTTGTGTTAATGGTTTCTTTTTTGTGCTCATACGTTAAATCTATCACCGCAAGGGATAAATATCTAACACCGTGCGTGTTGACTATTTTACCTCTGGCGGTGATAATGGTTGCATGTACTAAGGAGGTTGTATGGAACAACGCATAACCCTGAAAGATTATGCAATGCGCTTTGGGCAAAC (double strand) [196-bp lambda PR promoter fragment] | no binding |  |  | 
2 | 194-bp dinJ-yafQ promoter fragment |  | > 1500 | 79 | 44
